Literature values as cited in patent US20200276303A1, “Combination Therapies and Uses for Treatment of Demyelinating Disorders” (Biogen MA Inc., priority 2012, published 2020).

Conditions: for Disease activity measured by brain lesions (MRI scans) and relapse rate compared to placebo: Phase 2 clinical studies in relapse remitting MS

Row | Molecule | Disease activity measured by brain lesions (MRI scans) and relapse rate compared to placebo | other results
1 | alemtuzumab: antibody against CD52 | – | Phase III studies comparing with Rebif (high-dose subcutaneous interferon beta-1a) (patients with relapsing-remitting MS (RRMS)): positive results
2 | ocrelizumab: antibody against CD20 | statistically significant reduction | –
3 | rituximab: antibody against CD20 | statistically significant reduction | –
4 | Daclizumab: therapeutic humanized monoclonal antibody to the alpha subunit of the IL-2 receptor of T cells (antibody, chains of the INN, looked up, V domains shown) VH: QVQLVQSGAEVKKPGSSVKVSCKASGYTFTSYRMHWVRQAPGQGLEWIGYINPSTGYTEYNQKFKDKATITADESTNTAYMELSSLRSEDTAVYYCARGGGVFDYWGQGTLVTVSS VL: DIQMTQSPSTLSASVGDRVTITCSASSSISYMHWYQQKPGKAPKLLIYTTSNLASGVPARFSGSGSGTEFTLTISSLQPDDFATYYCHQRSTYPLTFGQGTKVEVK | – | Reducing lesions and improving clinical scores (patients with multiple sclerosis not controlled with interferon): effective
